Test results from US20260242419A1, “A CYCLIC PEPTIDE FOR TRAPPING INTERLEUKIN-1 BETA” (Merck Sharp & Dohme LLC, priority 2023, published 2026).
Starred links: 1 amine or outer side, 2 acyl side, 3 side chain; linkers in the order of their positions; H or OH if unused. Non-standard residues stand in square brackets, D forms with d. dProc4Bn4Br = (2R,4R)-4-[(4-bromophenyl)methyl]pyrrolidine-2-carboxylic acid, O=C([C@H]1C[C@@H](Cc2ccc(Br)cc2)CN1[*:1])[*:2]; Trp(4-Cl)(βS-Me) = C[C@@H](c1c[nH]c2cccc(Cl)c12)[C@H](N)C(=O)O; dPro(3S-(4-Br-benzyl)) = O=C(O)[C@@H]1NCC[C@@H]1Cc1ccc(Br)cc1; Trp(βS-Me,4-F) = C[C@@H](c1c[nH]c2cccc(F)c12)[C@H](N)C(=O)O; Bip(4'-COOH) = N[C@@H](Cc1ccc(-c2ccc(C(=O)O)cc2)cc1)C(=O)O; Ala(1-bicyclo(1.1.1)pentyl) = N[C@@H](CC12CC(C1)C2)C(=O)O; dPro(4R-Bzl(4-F)) = O=C(O)[C@H]1C[C@@H](Cc2ccc(F)cc2)CN1; 1Nal(3S-Me) = C[C@@H](c1cccc2ccccc12)[C@H](N)C(=O)O; Ala(pyrimidin-5-yl) = N[C@@H](Cc1cncnc1)C(=O)O; Phe(4-COOH) = N[C@@H](Cc1ccc(C(=O)O)cc1)C(=O)O; dαMeDab = C[C@](CCN[*:3])(N[*:1])C(=O)[*:2]; Pro(cis-4-F) = O=C(O)[C@@H]1C[C@H](F)CN1; Ala(4-THP) = N[C@@H](CC1CCOCC1)C(=O)O; d(αMeK) = C[C@@](N)(CCCCN)C(=O)O; 4Pal = N[C@@H](Cc1ccncc1)C(=O)O; αMeD = C[C@](N)(CC(=O)O)C(=O)O; αMeK = C[C@](N)(CCCCN)C(=O)O; hSer = N[C@@H](CCO)C(=O)O; Orn = NCCC[C@H](N)C(=O)O; Dab = NCC[C@H](N)C(=O)O; Dap = NC[C@H](N)C(=O)O; Aib = CC(C)(N)C(=O)O

B1: SEQ ID NO: 140 (peptide)
peptide: cyclo([Bip(4'-COOH)][4Pal][Phe(4-COOH)]G[Pro(cis-4-F)][1Nal(3S-Me)][Aib]SW[Aib][Ala(pyrimidin-5-yl)]Q[Dab]G[dPro(4R-Bzl(4-F))])
modifications: ring closure inferred; not fully specified (bridges); printed as Bip4CO2H-4Pal-Phe4COOH-G-Proc4F-SbMe1Nal-Aib-S-W-Aib-PyrimAla-Q-Dab-G-dProc4Bn4F
B2: SEQ ID NO: 141 (peptide)
peptide: cyclo([Bip(4'-COOH)][4Pal][Phe(4-COOH)]G[Pro(cis-4-F)][Trp(βS-Me,4-F)][Aib]SW[αMeD][Ala(pyrimidin-5-yl)]Q[Dab]G[dPro(4R-Bzl(4-F))])
modifications: ring closure inferred; not fully specified (bridges); printed as Bip4CO2H-4Pal-Phe4COOH-G-Proc4F-SbMeW4F-Aib-S-W-aMeD-PyrimAla-Q-Dab-G-dProc4Bn4F
B3: SEQ ID NO: 142 (peptide)
peptide: cyclo([Bip(4'-COOH)][4Pal][Phe(4-COOH)]G[Pro(cis-4-F)][Trp(βS-Me,4-F)][Aib]SW[dαMeDab][Ala(pyrimidin-5-yl)]Q[Dab]G[dPro(4R-Bzl(4-F))])
modifications: ring closure inferred; not fully specified (bridges); printed as Bip4CO2H-4Pal-Phe4COOH-G-Proc4F-SbMeW4F-Aib-S-W-daMeDab-PyrimAla-Q-Dab-G-dProc4Bn4F
B4: SEQ ID NO: 143 (peptide)
peptide: cyclo([Bip(4'-COOH)][4Pal][Phe(4-COOH)]G[Pro(cis-4-F)][Trp(βS-Me,4-F)][Aib]EW[Aib][Ala(pyrimidin-5-yl)]Q[Dab]G[dProc4Bn4Br])
modifications: ring closure inferred; not fully specified (bridges); printed as Bip4CO2H-4Pal-Phe4COOH-G-Proc4F-sbMeW4F-Aib-E-W-Aib-PyrimAla-Q-Dab-G-dProc4Bn4Br, cyclic (macrolactam)
B5: SEQ ID NO: 144 (peptide)
peptide: cyclo([Bip(4'-COOH)][Ala(1-bicyclo(1.1.1)pentyl)][Phe(4-COOH)]G[Pro(cis-4-F)][Trp(βS-Me,4-F)][Aib]SW[αMeK][Ala(pyrimidin-5-yl)]Q[Dab]G[dPro(4R-Bzl(4-F))])
modifications: ring closure inferred; not fully specified (bridges); printed as Bip4CO2H-AlaPent-Phe4COOH-G-Proc4F-SbMeW4F-Aib-S-W-aMeK-PyrimAla-Q-Dab-G-dProc4Bn4F, cyclic (macrolactam)
B6: SEQ ID NO: 145 (peptide)
peptide: cyclo([Bip(4'-COOH)][Ala(1-bicyclo(1.1.1)pentyl)][Phe(4-COOH)]G[Pro(cis-4-F)][Trp(βS-Me,4-F)][Aib]SW[d(αMeK)][Ala(pyrimidin-5-yl)]Q[Dab]G[dPro(4R-Bzl(4-F))])
modifications: ring closure inferred; not fully specified (bridges); printed as Bip4CO2H-AlaPent-Phe4COOH-G-Proc4F-SbMeW4F-Aib-S-W-daMeK-PyrimAla-Q-Dab-G-dProc4Bn4F, cyclic (macrolactam)
B7: SEQ ID NO: 146 (peptide)
peptide: cyclo([Bip(4'-COOH)][Ala(1-bicyclo(1.1.1)pentyl)][Phe(4-COOH)]G[Pro(cis-4-F)][Trp(βS-Me,4-F)][Aib]SW[αMeK][Ala(4-THP)]Q[Dab]G[dPro(4R-Bzl(4-F))])
modifications: ring closure inferred; not fully specified (bridges); printed as Bip4CO2H-AlaPent-Phe4COOH-G-Proc4F-SbMeW4F-Aib-S-W-aMeK-AlaTHP4-Q-Dab-G-dProc4Bn4F, cyclic (macrolactam)
B8: SEQ ID NO: 147 (peptide)
peptide: cyclo([Bip(4'-COOH)][Ala(1-bicyclo(1.1.1)pentyl)][Phe(4-COOH)]G[Pro(cis-4-F)][Trp(βS-Me,4-F)][Aib][hSer]W[αMeK][Ala(pyrimidin-5-yl)]Q[Dab]G[dPro(4R-Bzl(4-F))])
modifications: ring closure inferred; not fully specified (bridges); printed as Bip4CO2H-AlaPent-Phe4COOH-G-Proc4F-SbMeW4F-Aib-hS-W-aMeK-PyrimAla-Q-Dab-G-dProc4Bn4F, cyclic (macrolactam)
B9: SEQ ID NO: 148 (peptide)
peptide: cyclo([Bip(4'-COOH)][4Pal][Phe(4-COOH)]G[Pro(cis-4-F)][Trp(4-Cl)(βS-Me)][Aib]EW[Aib][Ala(pyrimidin-5-yl)]Q[Dab]G[dPro(4R-Bzl(4-F))])
modifications: ring closure inferred; not fully specified (bridges); printed as Bip4CO2H-4Pal-Phe4COOH-G-Proc4F-sbMeW4Cl-Aib-E-W-Aib-PyrimAla-Q-Dab-G-dProc4Bn4F, cyclic (macrolactam)
B10: SEQ ID NO: 149 (peptide)
peptide: cyclo([Bip(4'-COOH)][4Pal][Phe(4-COOH)]G[Pro(cis-4-F)][1Nal(3S-Me)][Aib]EW[Aib][Ala(pyrimidin-5-yl)]Q[Dab]G[dPro(4R-Bzl(4-F))])
modifications: ring closure inferred; not fully specified (bridges); printed as Bip4CO2H-4Pal-Phe4COOH-G-Proc4F-sbMe1Nal-Aib-E-W-Aib-PyrimAla-Q-Dab-G-dProc4Bn4F, cyclic (macrolactam)

biological target: Recombinant human IL-1β (BioLegend 579404) (human, UniProt P01584 117-269); test: cell-based or functional assay

First: B1
Second: B2
The “MRC5 IC50” value of the first is 3-fold higher: 0.033 nM for the first, 0.011 nM for the second.

B3 and B4 are within 1.5-fold of each other in “MRC5 IC50” value: 0.019 nM for the first, 0.026 nM for the second.

B5 and B6 are within 1.5-fold of each other in “MRC5 IC50” value: 0.031 nM for the first, 0.041 nM for the second.

B7 and B8 are within 1.5-fold of each other in “MRC5 IC50” value: 0.034 nM for the first, 0.045 nM for the second.

B9 and B10 are within 1.5-fold of each other in “MRC5 IC50” value: 0.032 nM for the first, 0.024 nM for the second.

cyclo([Bip(4'-COOH)][4Pal][Phe(4-COOH)]G[Pro(cis-4-F)][Trp(βS-Me,4-F)][Aib]EW[Aib][Ala(pyrimidin-5-yl)]Q[Dap]G[dPro(3S-(4-Br-benzyl))]) (ring closure inferred) [SEQ ID NO: 150] and cyclo([Bip(4'-COOH)][4Pal][Phe(4-COOH)]G[Pro(cis-4-F)][Trp(βS-Me,4-F)][Aib]EW[Aib][Ala(pyrimidin-5-yl)]Q[Orn]G[dPro(3S-(4-Br-benzyl))]) (ring closure inferred) [SEQ ID NO: 151] are within 1.5-fold of each other in “MRC5 IC50” value: 0.019 nM for the first, 0.022 nM for the second.

Going from cyclo([Bip(4'-COOH)][4Pal][Phe(4-COOH)]G[Pro(cis-4-F)][Trp(βS-Me,4-F)][Aib]EW[Aib][Ala(pyrimidin-5-yl)]QKG[dPro(3S-(4-Br-benzyl))]) (ring closure inferred) [SEQ ID NO: 152] to cyclo([Bip(4'-COOH)][4Pal][Phe(4-COOH)]G[Pro(cis-4-F)][1Nal(3S-Me)][Aib]EW[Aib][Ala(pyrimidin-5-yl)]Q[Dab]G[dPro(3S-(4-Br-benzyl))]) (ring closure inferred) [SEQ ID NO: 153], the “MRC5 IC50” value falls from 0.031 nM to 0.019 nM (1.6-fold).
